Molecular target: FITC-conjugated Mouse transferrin (UniProt Q921I1)
Assay: flow cytometry on cells
Conditions: read off a plot

Chain of UniProt Q921I1 (Q921I1 whole entry, looked up): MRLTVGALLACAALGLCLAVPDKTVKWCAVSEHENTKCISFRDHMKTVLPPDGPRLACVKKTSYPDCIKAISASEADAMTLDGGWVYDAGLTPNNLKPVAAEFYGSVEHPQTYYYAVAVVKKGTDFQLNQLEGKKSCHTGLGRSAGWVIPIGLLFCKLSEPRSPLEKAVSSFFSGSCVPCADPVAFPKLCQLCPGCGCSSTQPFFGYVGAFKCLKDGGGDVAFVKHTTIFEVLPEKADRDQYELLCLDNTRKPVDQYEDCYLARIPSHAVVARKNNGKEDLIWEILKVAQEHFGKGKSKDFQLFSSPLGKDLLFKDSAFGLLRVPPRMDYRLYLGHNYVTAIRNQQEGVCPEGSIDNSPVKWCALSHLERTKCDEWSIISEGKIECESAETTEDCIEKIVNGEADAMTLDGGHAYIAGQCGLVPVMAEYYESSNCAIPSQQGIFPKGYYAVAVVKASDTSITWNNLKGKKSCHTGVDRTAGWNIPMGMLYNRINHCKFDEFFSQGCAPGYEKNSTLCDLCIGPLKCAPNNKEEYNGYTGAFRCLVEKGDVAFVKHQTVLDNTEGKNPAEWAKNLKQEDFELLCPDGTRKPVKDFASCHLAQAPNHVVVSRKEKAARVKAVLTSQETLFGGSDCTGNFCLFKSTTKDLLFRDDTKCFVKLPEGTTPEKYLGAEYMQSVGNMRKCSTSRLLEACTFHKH

Row | Substance | response (parent: est. 1100) [m.f.i.] | response (MDCK cells stably expressing TfR1-FLAG, incubated with media containing FITC-labeled iron-loaded mouse transferrin, three replicates, parent: est. 580) [m.f.i.]
1 | house mouse (Mus musculus) TfR1, wild type, C-terminal FLAG (from UniProt Q62351) A296S; R569I; A575L | 910 | –
2 | zygodont (Zygodontomys brevicauda) TfR1, wild type, C-terminal FLAG S296A; N569R; S575A | – | 590
